What was measured:
[1] = tested on: Hep G2 cells; experiment: Cellular uptake of 5FU 1-mer conjugates by Hep G2 cells; format: cell-based, human
Method: Hep G2 cells were passaged into 2 cm^2 wells and grown in RPMI 1640 medium, which was supplemented with L-glutamine (10-040, CV) to a density of 0.3×10^6 to 0.4×10^6 cells per well (48-well cluster plate, Costar, Cambridge, Mass.). […] Then, an aliquot of the medium was saved for scintillation counting and the remainder of the medium aspirated from the well. The cells were washed with D-PBS (2×0.5 ml), treated with 0.25% trypsin (37° C., 2 minutes; trypsin prepared in HBSS with 1.0 mM EDTA) and suspended in fresh growth medium containing 10% FCS. The suspended cells were layered over silicon oil (0.5 ml) in a 1.7 ml conical microcentrifuge tube and pelleted by centrifugation at 14,000 rpm (12,000 g) for 30 seconds. The supernatant was carefully decanted and the cell pellet was lysed with 100 μl of a solution containing 0.5% NP 40, 100 mM sodium chloride, 14 mM Tris/HCl and 30% acetonitrile. The amount of radioactivity, and by inference the amount of neoglycoconjugate or oligomer associated with the cell lysate, was determined by scintillation counting.

[2] = Hepatic and systemic toxicity, 4 weekly bolus injections; format: in vivo, CD-1 mice
Method: Mice have previously been used as in vivo models for 5FU drug testing in the following manner (Ain et al., J. Surg. Res., 57, 366-372 (1994); Wang et al., Cancer Res., 50, 869s-872s (1990)). The plasma profiles, induced toxicities and pharmacokinetics of 5FU in mice are similar to those observed in humans (Wagner et al., Cancer Res., 46, 1499-1506 (1986)). Both po 1-mer and 5FdU were administered on a clinically relevant regimen of 4 weekly bolus injections via the tail vein (Anfield et al., Cancer, 39, 34-40 (1977)). The starting doses of 10 mg/kg and 15 mg/kg were determined by extrapolation of the in vitro data. One week after each injection, a cohort of animals (6 animals/dose/treatment) was sacrificed. Blood and liver samples were collected from each animal and assayed for hepatic and systemic toxicities. The blood sample analyses included a Superchem panel and a total blood count. The Superchem panel assayed blood levels of glucose, urea nitrogen (BUN), creatinine, total protein, albumin, both conjugated and unconjugated bilirubin, triglycerides, SGOT, SGPT, triglycerides, CPK, alkaline phosphatase, and peripheral blood differentials. Total blood counts were analyzed for hematocrit, as well as both red and white blood cell counts. Liver samples were subjected to histological analysis in order to determine changes in morphology, architecture and increase in necrotic tissue as compared to the controls. Any acute or sustained increases in blood counts or serum components indicative of organ damage in comparison with the untreated control was taken to be indicative of a toxic response. In addition, the weights of each cohort were recorded throughout the treatment period as an indication of their clinical condition.

[3] = 10 mg/kg weekly, WEEK 6 (treatment stopped for two weeks)

In the case of `CC(=O)N[C@H]1[C@H](OCCCCCCNC(=O)CC[C@H](NC(=O)CC[C@H](NC(=O)[C@H](Cc2ccc(O)cc2)NC(=O)C2CCC(CN3C(=O)CC(SCCCCCCOP(=O)(O)OC[C@H]4O[C@@H](n5cc(F)c(=O)[nH]c5=O)C[C@@H]4O)C3=O)CC2)C(=O)NCCCCCCO[C@@H]2O[C@H](CO)[C@H](O)[C@H](O)[C@H]2NC(C)=O)C(=O)NCCCCCCO[C@@H]2O[C@H](CO)[C@H](O)[C@H](O)[C@H]2NC(C)=O)O[C@H](CO)[C@H](O)[C@@H]1O` (stereo partly drawn) [po 1-mer, YEE(ahGalNAc)3-SMCC-poFU], the cellular uptake ([1]; 1 μM, 30 min) is reported as 5 pmoles/million cells, the cellular uptake ([1]; 1 μM, 480 min) is reported as 24.75 pmoles/10^6 cells and the “cellular uptake (peak)” value ([1]; 1 μM, 480 min) is reported as 25 pmoles/million cells. For the same compound, the cellular uptake ([1]; 2 μM, 480 min) was “about 26 pmole/10^6 cells”, the maximal cellular uptake ([1]; 4 μM) was 36 pmoles/million cells and the maximum cellular uptake ([1]; 4 μM, 480 min) was “about 36 pmoles/10^6 cells”. It also gave a maximal cellular uptake ([1]; 8 μM) of 43 pmoles/million cells, a cellular uptake ([1]; 8 μM, 120 min) of 35 pmoles/10^6 cells and a maximum cellular uptake ([1]; 8 μM, 480 min) of ~42 pmoles/10^6 cells. The “histological analysis of liver” value ([2]; 10 mg/kg weekly) was “mild hepatocellular swelling”, the “increased total bilirubin and gamma-glutamyl transferase (GT) levels” value ([2]; 10 mg/kg weekly) was “not observed” and the lactate dehydrogenase levels ([2]; 10 mg/kg weekly) was “increased”. It also gave a BUN ([2]; 10 mg/kg weekly, WEEK 1) of 24.66 mg/dL, a Calcium ([2]; 10 mg/kg weekly, WEEK 1) of 7.56 mg/dL and a Chloride ([2]; 10 mg/kg weekly, WEEK 1) of 106.33 meq/l. It also gave an MCH ([2]; 10 mg/kg weekly, WEEK 1) of 17.2 pg, an MCV ([2]; 10 mg/kg weekly, WEEK 1) of 51.5 fL and a Potassium ([2]; 10 mg/kg weekly, WEEK 1) of 11.63 meq/l. It also gave an SGOT ([2]; 10 mg/kg weekly, WEEK 1) of 335.5 u/l, an SGPT ([2]; 10 mg/kg weekly, WEEK 1) of 46.5 u/l and a Sodium ([2]; 10 mg/kg weekly, WEEK 1) of 155.6 meq/l. It also gave a WBC ([2]; 10 mg/kg weekly, WEEK 1) of 4.86 thds/cmm, a BUN ([2]; 10 mg/kg weekly, WEEK 2) of 18 mg/dL and a Calcium ([2]; 10 mg/kg weekly, WEEK 2) of 7.75 mg/dL. The Chloride ([2]; 10 mg/kg weekly, WEEK 2) was 95 meq/l, the MCH ([2]; 10 mg/kg weekly, WEEK 2) was 15.6 pg and the MCV ([2]; 10 mg/kg weekly, WEEK 2) was 51 fL. It also gave a Potassium ([2]; 10 mg/kg weekly, WEEK 2) of 11.1 meq/l, an SGOT ([2]; 10 mg/kg weekly, WEEK 2) of 911.33 u/l and an SGPT ([2]; 10 mg/kg weekly, WEEK 2) of 110 u/l. It also gave a Sodium ([2]; 10 mg/kg weekly, WEEK 2) of 142.5 meq/l, a WBC ([2]; 10 mg/kg weekly, WEEK 2) of 3.16 thds/cmm and a BUN ([2]; 10 mg/kg weekly, WEEK 3) of 22 mg/dL. The Calcium ([2]; 10 mg/kg weekly, WEEK 3) was 8.85 mg/dL, the Chloride ([2]; 10 mg/kg weekly, WEEK 3) was 87.5 meq/l and the MCH ([2]; 10 mg/kg weekly, WEEK 3) was 16.56 pg. The MCV ([2]; 10 mg/kg weekly, WEEK 3) was 56 fL, the Potassium ([2]; 10 mg/kg weekly, WEEK 3) was 8.9 meq/l and the SGOT ([2]; 10 mg/kg weekly, WEEK 3) was 1174 u/l. It also gave an SGPT ([2]; 10 mg/kg weekly, WEEK 3) of 177 u/l, a Sodium ([2]; 10 mg/kg weekly, WEEK 3) of 152.5 meq/l and a WBC ([2]; 10 mg/kg weekly, WEEK 3) of 2.8 thds/cmm. For the same compound, the BUN ([2]; 10 mg/kg weekly, WEEK 4) was 21.33 mg/dL, the Calcium ([2]; 10 mg/kg weekly, WEEK 4) was 6.5 mg/dL and the Chloride ([2]; 10 mg/kg weekly, WEEK 4) was 86.66 meq/l. The MCH ([2]; 10 mg/kg weekly, WEEK 4) was 16.42 pg, the MCV ([2]; 10 mg/kg weekly, WEEK 4) was 52.83 fL and the Potassium ([2]; 10 mg/kg weekly, WEEK 4) was 12.46 meq/l. For the same compound, the SGOT ([2]; 10 mg/kg weekly, WEEK 4) was 1549.5 u/l, the SGPT ([2]; 10 mg/kg weekly, WEEK 4) was 125.66 u/l and the Sodium ([2]; 10 mg/kg weekly, WEEK 4) was 161.6 meq/l. The WBC ([2]; 10 mg/kg weekly, WEEK 4) was 1.83 thds/cmm, the BUN [2, 3] was 22.44 mg/dL and the Calcium [2, 3] was 7.7 mg/dL. It also gave a Chloride [2, 3] of 89.72 meq/l, an MCH [2, 3] of 16.1 pg and an MCV [2, 3] of 51.18 fL. The Potassium [2, 3] was 10.82 meq/l, the SGOT [2, 3] was 1211.61 u/l and the SGPT [2, 3] was 137.55 u/l. The Sodium [2, 3] was 162.22 meq/l, the WBC [2, 3] was 3.03 thds/cmm and the weight gain ([2]; 10 mg/kg weekly, four week period) was “progressive and similar to the saline-treated control mice”. The “complete blood count: platelets” value ([2]; 15 mg/kg weekly) was “mild thrombocytopenia”, the “histological analysis of liver” value ([2]; 15 mg/kg weekly) was “mild hepatocellular swelling and limited subcapsular fibrosis in one mouse” and the “increased total bilirubin and gamma-GT levels” value ([2]; 15 mg/kg weekly) was “not observed”. The lactate dehydrogenase levels ([2]; 15 mg/kg weekly) was “increased”, the weight gain ([2]; 15 mg/kg weekly) was “somewhat less than the untreated control mice” and the BUN ([2]; 15 mg/kg weekly, WEEK 1) was 26 mg/dL. The Calcium ([2]; 15 mg/kg weekly, WEEK 1) was 9.15 mg/dL, the Chloride ([2]; 15 mg/kg weekly, WEEK 1) was 101.33 meq/l and the MCH ([2]; 15 mg/kg weekly, WEEK 1) was 16.83 pg. The MCV ([2]; 15 mg/kg weekly, WEEK 1) was 50 fL, the Potassium ([2]; 15 mg/kg weekly, WEEK 1) was 8.9 meq/l and the SGOT ([2]; 15 mg/kg weekly, WEEK 1) was 730 u/l. It also gave an SGPT ([2]; 15 mg/kg weekly, WEEK 1) of 67.5 u/l, a Sodium ([2]; 15 mg/kg weekly, WEEK 1) of 154.5 meq/l and a WBC ([2]; 15 mg/kg weekly, WEEK 1) of 2 thds/cmm. The BUN ([2]; 15 mg/kg weekly, WEEK 3) was 22 mg/dL, the Calcium ([2]; 15 mg/kg weekly, WEEK 3) was 7.73 mg/dL and the Chloride ([2]; 15 mg/kg weekly, WEEK 3) was 87.5 meq/l. For the same compound, the MCH ([2]; 15 mg/kg weekly, WEEK 3) was 16.56 pg, the MCV ([2]; 15 mg/kg weekly, WEEK 3) was 56.556 fL and the Potassium ([2]; 15 mg/kg weekly, WEEK 3) was 8.7 meq/l. For the same compound, the SGOT ([2]; 15 mg/kg weekly, WEEK 3) was 1194 u/l, the SGPT ([2]; 15 mg/kg weekly, WEEK 3) was 120.3 u/l and the Sodium ([2]; 15 mg/kg weekly, WEEK 3) was 156.5 meq/l. It also gave a WBC ([2]; 15 mg/kg weekly, WEEK 3) of 2.1 thds/cmm, a BUN ([2]; 15 mg/kg weekly, WEEK 4) of 20.33 mg/dL and a Calcium ([2]; 15 mg/kg weekly, WEEK 4) of 6.7 mg/dL. It also gave a Chloride ([2]; 15 mg/kg weekly, WEEK 4) of 81.66 meq/l, an MCH ([2]; 15 mg/kg weekly, WEEK 4) of 14.2 pg and an MCV ([2]; 15 mg/kg weekly, WEEK 4) of 51 fL. The Potassium ([2]; 15 mg/kg weekly, WEEK 4) was 13.46 meq/l, the SGOT ([2]; 15 mg/kg weekly, WEEK 4) was 1669.5 u/l and the SGPT ([2]; 15 mg/kg weekly, WEEK 4) was 123.66 u/l. For the same compound, the Sodium ([2]; 15 mg/kg weekly, WEEK 4) was 165.6 meq/l, the WBC ([2]; 15 mg/kg weekly, WEEK 4) was 1.85 thds/cmm and the overall toxicity ([2]; 10 and 15 mg/kg weekly) was “mild at best”.

From patent publication US7262177B2, “Conjugates of glycosylated/galactosylated peptide, bifunctional linker, and nucleotidic monomers/polymers, and related compositions and methods of use” (priority 2000, dated 2007)
